One substance from PMC6029366 can be followed below.

The target in this assay is M1R-TEV-tTA fusion protein.

“β-arrestin-TEV protease (from UniProt P32121 1-409) (natural protein)” returned a TANGO β-arrestin recruitment assay, luciferase reporter (RLU), HTLA cells treated with the muscarinic agonist carbachol of 7.4 fold.
